Measured values as given in patent US6432692 (WISCONSIN ALUMNI RESEARCH FOUNDATION, dated 2002).

T1: full length aryl hydrocarbon receptor (AHR) translated in reticulocyte lysate (pSportAHR) (UniProt P30561 1-805, limits assumed)
T1 construct: also called Ah receptor; radiolabeled AHR
T1 sequence (looked up): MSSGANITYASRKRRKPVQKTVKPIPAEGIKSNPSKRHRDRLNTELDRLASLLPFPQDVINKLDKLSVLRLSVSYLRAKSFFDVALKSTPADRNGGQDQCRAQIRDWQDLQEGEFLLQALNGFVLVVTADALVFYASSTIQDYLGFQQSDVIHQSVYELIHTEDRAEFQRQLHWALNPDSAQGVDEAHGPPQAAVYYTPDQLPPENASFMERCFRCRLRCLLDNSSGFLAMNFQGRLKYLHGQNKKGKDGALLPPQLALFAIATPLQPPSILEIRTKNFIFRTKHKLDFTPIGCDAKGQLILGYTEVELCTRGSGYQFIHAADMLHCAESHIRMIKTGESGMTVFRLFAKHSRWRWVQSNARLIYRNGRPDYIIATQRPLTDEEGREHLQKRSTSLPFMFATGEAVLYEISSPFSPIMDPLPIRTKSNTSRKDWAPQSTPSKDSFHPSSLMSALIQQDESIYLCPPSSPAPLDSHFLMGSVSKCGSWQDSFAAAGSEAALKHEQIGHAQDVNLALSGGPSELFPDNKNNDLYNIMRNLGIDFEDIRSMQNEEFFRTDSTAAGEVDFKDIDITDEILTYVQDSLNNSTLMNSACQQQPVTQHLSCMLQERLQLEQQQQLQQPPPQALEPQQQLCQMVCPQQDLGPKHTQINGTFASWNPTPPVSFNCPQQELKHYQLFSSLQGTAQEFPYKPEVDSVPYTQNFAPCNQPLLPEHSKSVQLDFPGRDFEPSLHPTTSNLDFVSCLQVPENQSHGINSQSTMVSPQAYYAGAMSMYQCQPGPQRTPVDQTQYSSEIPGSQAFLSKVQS


Key:
Hsp90 = molecular target: T2, Hsp90; experiment: co-immunoprecipitation of 35S labeled Hsp90 with T7-agarose, bands quantified with a phosphoimager
T2 construct: also called radiolabeled Hsp90; 35S labeled Hsp90
Protocol: (§1) The bacterial expression of FKBP52 and ARA9 was confirmed by SDS-PAGE followed by both Coomassie stain and western blot analysis with an anti-T7 peptide antibody (Novagen). Immunoprecipitations of complexes with either AHR- or Hsp90 were performed in MENG buffer as above, using anti-T7 agarose (Novagen). The complexes were then precipitated and analyzed by SDS-PAGE and autoradiography.
(§2) Figure 3A: FIG. 3A (Top). AHR was translated in reticulocyte lysates in the presence of ^35S-methionine. Labeled proteins were then incubated in the presence of T7 tagged ARA9, T7 tagged FKBP52 or untransformed BL21 extract and complexes were separated and visualized as above. "Input" lanes represent 25% of total protein (AHR or Hsp90) used in experiments. Bottom: The bands radioactivity present in the AHR or Hsp90 bands was quantified using a phosphoimager to make comparisons of relative coimmunoprecipitation. The bars represent the means from three independent experiments. The error bars indicate the standard error of the mean. Figure 3B: FIG. 3B. Hsp90 was used in a similar experiment described in FIG. 3A.
(§3) Specificity of ARA9 for AHR: The structural similarity between ARA9 and FKBP52 led us to compare the relative capacity of these two factors to bind AHR. […] The AHR-ARA9 or AHR-FKBP52 associations were determined by coimmunoprecipitation with T7-agarose. […]

[1] = molecular target: T1, full length aryl hydrocarbon receptor …; experiment: co-immunoprecipitation of 35S-labeled AHR with T7-agarose, bands quantified with a phosphoimager
Protocol: as §1, §2, §3

Binder | capacity to interact with Hsp90 relative to ARA9 (Hsp90) [fold] | efficiency at precipitating AHR relative to FKBP52 [1] [times]
T7 tagged FKBP52 expressed in bacteria (pET17b-FKBP52, PL947) (other) MASMTGGQQMGMTAEEMKAAESGAQSAPLPLEGVDISPKQDEGVLKVIKREGTGTETPMIGDRVFVHYTGWLLDGTKFDSSLDRKDKFSFDLGKGEVIKAWDIAVATMKVGELCRITCKPEYAYGSAGSPPKIPPNATLVFEVELFEFKGEDLTDDEDGGIIRRIRTRGEGYARPNDGAIVEVALEGYYKDRLFDQRELRFEVGEGESLDLPCGLEKAIQRMEKGEHSILYLKPSYAFGNAGKEKFQIPPYAELKYEVHLKSFEKAKESWEMSSEEKLEQSAIVKERGTVYFKEGKYKQALLQYKKIVSWLEYESSFSSEEVQKAQALRLASHLNLAMCHLKLQAFSAAVESCNKALELDSNNEKGLFRRGEAHLAVNDFDLARADFQKVLQLYPSNKAAKAQLAVCQQRIRKQIAREKKLYANMFERLAEEENKAKAEVAAGDHPMDTEMKDERNDVAGSQSQVETEA | 4 | 
T7 tagged full length ARA9 expressed in bacteria (pET17b-ARA9, PL799) (other, Expressed in BL21(DE3); also called T7-tagged ARA9; FL) MASMTGGQQMGMADIIARLREDGIQKRVIQEGRGELPDFQDGTKATFHYRTLHSDDEGTVLDDSRARGKPMELIIGKKFKLPVWETIVCTMREGEIAQFLCDIKHVVLYPLVAKSLRNIAVGKDPLEGQRHCCGVAQMREHSSLGHADLDALQQNPQPLIFHMEMLKVESPGTYQQDPWAMTDEEKAKAVPLIHQEGNRLYREGHVKEAAAKYYDAIACLKNLQMKEQPGSPEWIQLDQQITPLLLNYCQCKLVVEEYYEVLDHCSSILNKYDDNVKAYFKRGKAHAAVWNAQEAQADFAKVLELDPALAPVVSRELRALEARIRQKDEEDKARFRGIFSH |  | ~4
